± gives the standard deviation of the averaged measurements.
Legend:
[1] = tested on: VchCAST RNA-guided transposition machinery (E. coli BL21(DE3) host, lacZ target); test: relative integration efficiency (T-RL orientation) vs wild-type transposon end (log2 (normalized fold change)); transposon end mutated: right end (5 bp flank + 75 bp right end); higher = more efficient transposition
Method in brief: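 Barcode abundances in input plasmids and in genomic integration junctions were obtained by PCR amplification and Illumina sequencing. These came from E. coli BL21(DE3) co-transformed with a T7-driven effector plasmid and a pUC57 donor carrying 1549 left-end or 1849 right-end transposon variants, then plated with 0.1 mM IPTG at 37°C for 18 h. Relative integration efficiency is the output/input fold change, normalised to reference barcodes and log-transformed.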

[2] = tested on: VchCAST RNA-guided transposition machinery (E. coli BL21(DE3) host, lacZ target); test: relative integration efficiency (T-LR orientation) vs wild-type transposon end (log2 (normalized fold change)); transposon end mutated: right end (5 bp flank + 75 bp right end); higher = more efficient transposition
Method: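 Pooled, barcoded VchCAST (Tn6677) mini-transposon donor libraries; each variable transposon-end sequence sits in a fixed pDonor mini-transposon context (10-bp barcode and cargo not included). Left- or right-end libraries were co-transformed with pEffector (TniQ-Cascade, TnsABC, lacZ crRNA, T7, 0.1 mM IPTG) into E. coli BL21(DE3) and grown 18 h at 37 C. T-LR and T-RL junction amplicons were sequenced; output/input barcode fold change was normalised to the mean of four wild-type barcodes and log2-transformed. Two biological replicates; zero-count/undetected variants carry floor values (-10 / -15), censored here. Barcode uncoupling by PCR recombination adds noise.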

| Sequence | relative integration efficiency (log2) [1] | relative integration efficiency (log2) [2] |
| --- | --- | --- |
| ACATTTGTTGATACAACCATAAAATGATAATTACACCCATAAATTGATAATTACCACTCCCAATTTAACTATAACGCTCTGATCATAGTCAGACCAACATTGCTACGACCCGTATTCGCACCGACAC | -0.782 ± 0.24 | 2.61 ± 0.18 |
| ACATTTGTTGATACAACCATAAAATCATCATTACCCCCATCAATTGATAATTATCACACCCCATTTAACTATAACGCTCTGATCATAGTCAGACCAACATTGCTACGACCCGTATTCGCACCGACAC | -5.76 ± 0.07 | -1.95 ± 0.53 |
| ACATTTGTTGATACAACCATAAAATGATAATTACACCCATAAATTGATAATTATCACACCCATAAATTGATACTCTGATCATAGTCAGACCAACATTGCTACGACCCGTATTCGCACCGACACTGAC | 0.0156 ± 0.031 | 0.201 ± 0.14 |
| ACATTTGTTGATACAACCATAAAATGATAATTACACCCTATTATTGATAATTATCACACCCATAAATTGATATTGCCTCTGATCATAGTCAGACCAACATTGCTACGACCCGTATTCGCACCGACAC | -0.713 ± 0.11 | -0.974 ± 0.13 |
| ACATTTGTTGATACACAACGCCCCGTCGCCGGCACAAACGCCCGGTCGCCGGCGACACAAACGCCCGGTCGCGGTAAGAGGATCATAGTCAGACCAACATTGCTACGACCCGTATTCGCACCGACAC | -7.89 ± 0.53 | -5.17 ± 0.85 |
| ACATTTGTTGATACAACCATCAAATGATAATTACACCCATACATTGATAATTATCACACCCAATTTAACTATAACGCTCTGATCATAGTCAGACCAACATTGCTACGACCCGTATTCGCACCGACAC | -2.9 ± 0.42 | -0.0308 ± 0.27 |
| ACATTTGTTGATACAACCAAAAAATGATAATTACACCCATAAATTGATAATAATGACACCGAATTTAACTATAACGCTCTGATCATAGTCAGACCAACATTGCTACGACCCGTATTCGCACCGACAC | -1.3 ± 0.18 | 2.17 ± 0.081 |
| ACATTTGTTCATACAACCATAAAACGATAATTACACCCATAAATTGATAATTATCACACCCAATTTAACTATAACGCTCTGATCATAGTCAGACCAACATTGCTACGACCCGTATTCGCACCGACAC | -0.611 ± 0.28 | 1.42 ± 0.13 |
| ACATTTGTTGATACAACCATAAAATGATCACCCATAAATTGATAATTATCACACCCATAAATTGATATTGCCTCTGATCATAGTCAGACCAACATTGCTACGACCCGTATTCGCACCGACACTGACT | -4.08 ± 0.34 | -0.722 ± 0.27 |
| ACATTTGTTCATCCAACCATAAAATGATAATTACACCCATAAATGGATAATTATCACACCCAATTTAACTATAACGCTCTGATCATAGTCAGACCAACATTGCTACGACCCGTATTCGCACCGACAC | -2.08 ± 0.37 | -0.431 ± 0.44 |
| ACATTTGTTGATACAACCATAAAATGATAAGTACACCCATAAATTGATAAGTATCACACCCATAAATTGATATGGCCTCTGATCATAGTCAGACCAACATTGCTACGACCCGTATTCGCACCGACAC | -0.35 ± 0.029 | 0.407 ± 0.12 |
| ACATTTGTTGATAACCAACGCCCCGTCGCCGGCACAAACGCCCGGTCGCCGGCTCACACCCATAAATTGATATTGCCTCTGATCATAGTCAGACCAACATTGCTACGACCCGTATTCGCACCGACAC | -7.79 ± 0.73 | < -10 |
| ACATTTGTTGATACAACCATAAAAGGATAATTACACCCATAAATTGATAATTATCCCACCCCATTTAACTATAACGCTCTGATCATAGTCAGACCAACATTGCTACGACCCGTATTCGCACCGACAC | -0.775 ± 0.14 | 2.28 ± 0.097 |
| ACATTTGTTGATACAACCATAAAATGATAATTACACCCATAAATTGATAATTATCACACCCATAAATTGATATTGCCAGTGATCATAGTCAGACCAACATTGCTACGACCCGTATTCGCACCGACAC | -0.39 ± 0.14 | -0.53 ± 0.12 |
| ACATTTGTTGAATGTACCATAAAATGATAATTACACCCATAAATTGATAATTATCACACCCATAAATTGATATTGCCTCTGATCATAGTCAGACCAACATTGCTACGACCCGTATTCGCACCGACAC | -0.836 ± 0.071 | -1.92 ± 0.32 |
| ACATTTGTTGATACAACCATAAAATGATAATTAATAATTATTTATAATCAGCAACACCCATAAATTGATAATTATCAACAAACGCCCGGTCGCGGTACTCTGATCATAGTCAGACCAACATTGCTAC | -3.18 ± 0.077 | 0.0215 ± 0.36 |
| ACATTTGTTGATACAACCATATATTGATATCTCCACCCATAAATTGATATTGCTCAGTGGGTATTTAACTATAACGCTCTGATCATAGTCAGACCAACATTGCTACGACCCGTATTCGCACCGACAC | -1.2 ± 0.17 | 2.32 ± 0.041 |

| Sequence | relative integration efficiency (log2) [1] | relative integration efficiency (log2) [2] |
| --- | --- | --- |
| ACATTTGTTGATTGTTCCATAAAATGATAATTACACCCATAAATTGATAATTATCACACCCATAAATTGATATTGCCTCTGATCATAGTCAGACCAACATTGCTACGACCCGTATTCGCACCGACAC | -1.3 ± 0.19 | -1.3 ± 0.53 |
| ACATTTGTTGATACACCCATAAATTGATAATTACAACCATAAAATGATAATTATCACAACCATATATTGATATCTCCTCTGATCATAGTCAGACCAACATTGCTACGACCCGTATTCGCACCGACAC | -0.596 ± 0.35 | -0.397 ± 0.063 |
| ACATTTGTTGATACAACCATAAAATGATAATTACACCCATAAATTTCGCATTATCACACCCATAAATTGATATTGCCTCTGATCATAGTCAGACCAACATTGCTACGACCCGTATTCGCACCGACAC | -1.91 ± 0.14 | -1.39 ± 0.6 |
| ACATTTGTTGATACACCCATAAATTGATATTGCCAACCATAAAGTGATATTTATCACAACCATAAAATGATAATTACTCTGATCATAGTCAGACCAACATTGCTACGACCCGTATTCGCACCGACAC | -0.499 ± 0.21 | -0.362 ± 0.13 |
| ACATTTGTTGATACAACCATAAAATGATCATTACCCCCATCAATTGATAATTATCCCACCCAATTTAACTATAACGCTCTGATCATAGTCAGACCAACATTGCTACGACCCGTATTCGCACCGACAC | -3.71 ± 0.29 | 0.227 ± 0.14 |
| ACATTTGTTGATACAACCATAAAATGATAATTAATAATTATTTATACACCCATAAATTGATAATTATCACACCCATAAATTGATATTGCCTCTGATCATAGTCAGACCAACATTGCTACGACCCGTA | -3.6 ± 0.11 | -0.465 ± 0.37 |
| ACATTTGTTGATACAACCATAAAATGATAATGCACCCCATAAATTGATAATTATCACACCCATAAATTGATATTGCCTCTGATCATAGTCAGACCAACATTGCTACGACCCGTATTCGCACCGACAC | -1.24 ± 0.24 | -0.689 ± 0.18 |
| ACATTTGTTGATACAACCATAAAATGATAATTACACCCATAAATTGATAATTATCACACCCATAAATTGATATTGCCTCTGTTGACGGCTAGCTCAGTCCTAGGTATAGTGCTAGCCGCACCGACAC | -0.43 ± 0.065 | -0.517 ± 0.3 |
| ACATTTGTTGATACAACCATAAAATGATAATTACACCCATAAATTGATAATTATGTCACCCATAAATTGATATTGCCTCTGATCATAGTCAGACCAACATTGCTACGACCCGTATTCGCACCGACAC | -0.72 ± 0.15 | 0.557 ± 0.054 |
| ACATTTGTTCATCCAACCATAAAATGATAATTACACCCATAAATTCATAATTATCACACCCAATTTAACTATAACGCTCTGATCATAGTCAGACCAACATTGCTACGACCCGTATTCGCACCGACAC | -2.84 ± 0.39 | -1.1 ± 0.16 |
| ACATTTGTTGATACTACCATATAATGATAATAACACCCATAAAATGATAATTATCACACCCAATTTAACTATAACGCTCTGATCATAGTCAGACCAACATTGCTACGACCCGTATTCGCACCGACAC | -1.45 ± 0.32 | 1.9 ± 0.11 |
| ACATTTGTTGATACAACCATAAAATGATAATTACAACCATAAGTTGATATTTTTCACACCCATAAATTGATATTGCCTCTGATCATAGTCAGACCAACATTGCTACGACCCGTATTCGCACCGACAC | -0.349 ± 0.2 | 0.0596 ± 0.086 |
| ACATTTCTGGATACAACCATAAAATGATAATTACACCCATAAATGGATCATTATCACACCCAATTTAACTATAACGCTCTGATCATAGTCAGACCAACATTGCTACGACCCGTATTCGCACCGACAC | -3.09 ± 0.37 | -0.629 ± 0.35 |
| ACATTTGTTGATACAACCAATAAAAGATTAATACCCCCATTAATTGATAATTGTGACACCGAATTTAACTATAACGCTCTGATCATAGTCAGACCAACATTGCTACGACCCGTATTCGCACCGACAC | -5.12 ± 0.085 | -2.97 ± 0.16 |
| ACATTTGTTGATACAACCATAAAAGGATAATTACACCCATCAATTGATAATTATCACACCCAATTTAACTATAACGCTCTGATCATAGTCAGACCAACATTGCTACGACCCGTATTCGCACCGACAC | -2.32 ± 0.29 | 1.06 ± 0.24 |
| ACATTTGTTGATACAACCATAAAATGATAATTAATAATTATTTCACCCATAAATTGATAATTATCAACAAACGCCCGGTCGCGGTACTCTGATCATAGTCAGACCAACATTGCTACGACCCGTATTC | -2.91 ± 0.43 | 0.365 ± 0.079 |
| ACATTTGTTGATACAACCATAAAGTGATATTTACAACCATATATTGATATCTCTCACACCCATAAATTGATAATTACTCTGATCATAGTCAGACCAACATTGCTACGACCCGTATTCGCACCGACAC | 0.065 ± 0.054 | 0.444 ± 0.39 |
